How the values were obtained:
[1] = in vivo; parameters: species or system BALB/C nu/nu mice; conditions: BALB/C nu/nu, mouse, iv, total radioactivity
Procedure: In vivo studies were conducted in accordance with European guidelines on laboratory animal protection and the Declaration of Helsinki. For the biodistribution and PET/CT experiments BALB/C nu/nu mice were used and the protocols were approved by the ethics committee for animal research in Uppsala (Sweden); permit number 00473/21.
After acclimatization, animals were subcutaneously injected on the right hind leg with a suspension of freshly harvested PC-3 cells (7 × 10^6 per animal) in PBS. Four weeks after, well palpable solid tumors were developed and the animals were randomly assigned in groups of four.
Animals (19 ± 2 g at the day of the experiment) were injected through the tail vein with 100 μL solution of radiopeptide under evaluation (40 pmol, 100 kBq–1 h pi, 40 pmol, 700 kBq–3 h pi) in PBS containing 1% w/v BSA. Another group of animals received a bolus injection with the radioconjugate (40 pmol, 300 kBq) in addition of 4 nmol of NOTA-PEG2-RM26–1 h pi Block group. At specified time points, animals were euthanized, tissues/organs of interest and tumors were collected, weighted, and the radioactivity content of the samples was measured.
Statistical analysis for the biodistribution data was performed with GraphPad Prism 7, employing a two-way ANOVA test with Tuckey’s posthoc analysis.

[2] = in vivo; cited from earlier work
Source text: In agreement with their preclinical data, SUV values for the pancreas for [^68Ga]Ga-SB3 and [^68Ga]Ga-RM2 were around 40, while for [^68Ga]Ga-PEG3-RM26, this value was 2-fold lower.

[3] = test system: PC-3 bearing mice; conditions: mouse, in vivo; cited from earlier work
Procedure: It is quite interesting to compare the biodistribution results for the two new conjugates with their counterparts without the Gly^11/Sar^11 substitution, i.e., [^68Ga]Ga-NOTA-PEG2-RM26 and [^68Ga]Ga-NODAGA-PEG2-RM26, previously reported.[24] Despite the similar amounts of peptide and activity injected, the biodistribution data for [^68Ga]Ga-NOTA-PEG2-RM26 and [^68Ga]Ga-NODAGA-PEG2-RM26, in PC-3 bearing mice, are reported only for […].[24] Under these conditions, we are going to focus on a comparison with the data for 3 h pi.

[4] = 40 pmol, Activity in GI (gastrointestinal tract)
[5] = 40 pmol, Activity uptake in blood
[6] = 40 pmol, Activity uptake in kidneys
[7] = 40 pmol, Activity uptake in tumor
[8] = Activity in GI (gastrointestinal tract)

Row | Compound | tissue uptake dose at 1 h [1, 4] [%ID] | tissue uptake dose at 3 h [1, 4] [%ID] | tissue uptake dose at 1 h ([1]; 40 pmol, Activity in body) [%ID] | tissue uptake dose at 3 h ([1]; 40 pmol, Activity in body) [%ID] | tissue uptake at 1 h [1, 5] [%ID/g] | tissue uptake at 1 h [1, 6] [%ID/g] | tissue uptake at 1 h [1, 7] [%ID/g] | tissue uptake at 3 h [1, 7] [%ID/g] | tissue uptake dose at 1 h [1, 8] [%ID] | tissue uptake dose at 1 h ([1]; Activity in body) [%ID] | SUV values for the pancreas [2] | Tumor/pancreas ratio [3]
1 | CC(C)C[C@H](NC(=O)C[C@H](O)[C@H](CC(C)C)NC(=O)[C@H](Cc1c[nH]cn1)NC(=O)CN(C)C(=O)[C@@H](NC(=O)[C@H](C)NC(=O)[C@H](Cc1c[nH]c2ccccc12)NC(=O)[C@H](CCC(N)=O)NC(=O)[C@@H](Cc1ccccc1)NC(=O)COCCOCCNC(=O)CCC(C(=O)O)N1CCN(CC(=O)O)CCN(CC(=O)O)CC1)C(C)C)C(N)=O (stereo partly drawn) [[^68Ga]Ga-NODAGA-PEG2-[Sar^11]RM26, metal not drawn] | 2.5 ± 0.3 | 1.8 ± 0.7 | 3.8 ± 0.6 | 2.2 ± 0.9 | < 1 | < 5 | 17 ± 3 | 15 ± 3 | 1.6 ± 0.2 | 4 ± 3 |  | 
2 | CC(C)C[C@H](NC(=O)C[C@H](O)[C@H](CC(C)C)NC(=O)[C@H](Cc1c[nH]cn1)NC(=O)CN(C)C(=O)[C@@H](NC(=O)[C@H](C)NC(=O)[C@H](Cc1c[nH]c2ccccc12)NC(=O)[C@H](CCC(N)=O)NC(=O)[C@@H](Cc1ccccc1)NC(=O)COCCOCCNC(=O)CN1CCN(CC(=O)O)CCN(CC(=O)O)CC1)C(C)C)C(N)=O [[^68Ga]Ga-NOTA-PEG2-[Sar^11]RM26, metal not drawn] | 3 ± 0.4 | 2 ± 1 | 5 ± 0.2 | 2 ± 1 | < 1 | < 5 | 14 ± 3 | 13 ± 1 | 1.7 ± 0.2 | 4.1 ± 0.6 |  | 
3 | DOTA-Pip-DPhe-Gln-Trp-Ala-Val-Gly-His-Sta-Leu-NH2 [[^68Ga]Ga-RM2, GRPR-targeting radioconjugate tested in clinical trials] |  |  |  |  |  |  |  |  |  |  | around 40 | 
4 | DOTA-p-aminomethylaniline-diglycolic acid-DPhe-Gln-Trp-Ala-Val-Gly-His-Leu-NHEt [[^68Ga]Ga-SB3, GRPR-targeting radioconjugate tested in clinical trials] |  |  |  |  |  |  |  |  |  |  | around 40 | 
5 | NOTA-PEG3-d-Phe-Gln-Trp-Ala-Val-Gly-His-Sta-Leu-NH2 [[^68Ga]Ga-NOTA-PEG3-RM26, GRPR-targeting radioconjugate tested in clinical trials] |  |  |  |  |  |  |  |  |  |  | 2-fold lower | over 1

Source: article PMC11044165, “Two Novel [^68Ga]Ga-Labeled Radiotracers Based on Metabolically Stable [Sar^11]RM26 Antagonistic Peptide for Diagnostic Positron Emission Tomography Imaging of GRPR-Positive Prostate Cancer” (ACS Omega, 2024)
